According to publication PMC11150344 (2024):

T1: PIK3CA H1047L peptide on HLA-A*03:01 (human)
T1 peptide: ALHGGWTTK

T2: PIK3CA H1047L peptide on HLA-A*11:01 (human)
T2 peptide: ALHGGWTTK

B1: TCR4 (TCR)
alpha TRAV19*01 TRAJ49*01 CDR3: CALSEATGNQFYF
beta TRBV29-1*01 TRBJ2-7*01 CDR3: CSVQTLTSSDEQYF
B2: TCR5 (TCR)
alpha TRAV24*01 TRAJ44*01 CDR3: CASHAGTASKLTF
beta TRBV4-3*01 TRBJ2-1*01 CDR3: CASSQDVASSYNEQFF
B3: TCR2 (TCR)
alpha TRAV12-3*01 TRAJ26*01 CDR3: CATNYGQNFVF
beta TRBV29-1*01 TRBJ2-7*01 CDR3: CSVSGTSNYEQYF
B4: TCR1 (TCR)
alpha TRAV13-2*01 TRAJ49*01 CDR3: CAEGETGNQFYF
beta TRBV5-1*01 TRBJ2-1*01 CDR3: CASSSGTGGFEQFF

Target: T1, PIK3CA H1047L peptide on HLA-A*03:01
Assay: activation reporter or marker

| Binder | binding result |
| --- | --- |
| B1 | no recognition |
| B2 | no recognition |
| B3 | no recognition |
| B4 | no recognition |

Target: T2, PIK3CA H1047L peptide on HLA-A*11:01
Assay: multimer staining

| Binder | binding result |
| --- | --- |
| B1 | recognises |
| B2 | recognises |
| B3 | recognises |
| B4 | recognises |
